Literature values, collected in publication PMC8695629.

Assays:
CBX8 (Homo sapiens) = CBX8 (Homo sapiens) (UniProt Q9HC52)
[1] = biological target: DOT1L 7-mer peptide (Homo sapiens) (UniProt Q8TEK3); assay: fluorescence polarization
[2] = biological target: DOT1L 10-mer peptide (Homo sapiens) (UniProt Q8TEK3)
BCOR (Homo sapiens) = BCOR (Homo sapiens) (UniProt Q6W2J9)
Sequence of UniProt Q6W2J9 (Q6W2J9 whole entry): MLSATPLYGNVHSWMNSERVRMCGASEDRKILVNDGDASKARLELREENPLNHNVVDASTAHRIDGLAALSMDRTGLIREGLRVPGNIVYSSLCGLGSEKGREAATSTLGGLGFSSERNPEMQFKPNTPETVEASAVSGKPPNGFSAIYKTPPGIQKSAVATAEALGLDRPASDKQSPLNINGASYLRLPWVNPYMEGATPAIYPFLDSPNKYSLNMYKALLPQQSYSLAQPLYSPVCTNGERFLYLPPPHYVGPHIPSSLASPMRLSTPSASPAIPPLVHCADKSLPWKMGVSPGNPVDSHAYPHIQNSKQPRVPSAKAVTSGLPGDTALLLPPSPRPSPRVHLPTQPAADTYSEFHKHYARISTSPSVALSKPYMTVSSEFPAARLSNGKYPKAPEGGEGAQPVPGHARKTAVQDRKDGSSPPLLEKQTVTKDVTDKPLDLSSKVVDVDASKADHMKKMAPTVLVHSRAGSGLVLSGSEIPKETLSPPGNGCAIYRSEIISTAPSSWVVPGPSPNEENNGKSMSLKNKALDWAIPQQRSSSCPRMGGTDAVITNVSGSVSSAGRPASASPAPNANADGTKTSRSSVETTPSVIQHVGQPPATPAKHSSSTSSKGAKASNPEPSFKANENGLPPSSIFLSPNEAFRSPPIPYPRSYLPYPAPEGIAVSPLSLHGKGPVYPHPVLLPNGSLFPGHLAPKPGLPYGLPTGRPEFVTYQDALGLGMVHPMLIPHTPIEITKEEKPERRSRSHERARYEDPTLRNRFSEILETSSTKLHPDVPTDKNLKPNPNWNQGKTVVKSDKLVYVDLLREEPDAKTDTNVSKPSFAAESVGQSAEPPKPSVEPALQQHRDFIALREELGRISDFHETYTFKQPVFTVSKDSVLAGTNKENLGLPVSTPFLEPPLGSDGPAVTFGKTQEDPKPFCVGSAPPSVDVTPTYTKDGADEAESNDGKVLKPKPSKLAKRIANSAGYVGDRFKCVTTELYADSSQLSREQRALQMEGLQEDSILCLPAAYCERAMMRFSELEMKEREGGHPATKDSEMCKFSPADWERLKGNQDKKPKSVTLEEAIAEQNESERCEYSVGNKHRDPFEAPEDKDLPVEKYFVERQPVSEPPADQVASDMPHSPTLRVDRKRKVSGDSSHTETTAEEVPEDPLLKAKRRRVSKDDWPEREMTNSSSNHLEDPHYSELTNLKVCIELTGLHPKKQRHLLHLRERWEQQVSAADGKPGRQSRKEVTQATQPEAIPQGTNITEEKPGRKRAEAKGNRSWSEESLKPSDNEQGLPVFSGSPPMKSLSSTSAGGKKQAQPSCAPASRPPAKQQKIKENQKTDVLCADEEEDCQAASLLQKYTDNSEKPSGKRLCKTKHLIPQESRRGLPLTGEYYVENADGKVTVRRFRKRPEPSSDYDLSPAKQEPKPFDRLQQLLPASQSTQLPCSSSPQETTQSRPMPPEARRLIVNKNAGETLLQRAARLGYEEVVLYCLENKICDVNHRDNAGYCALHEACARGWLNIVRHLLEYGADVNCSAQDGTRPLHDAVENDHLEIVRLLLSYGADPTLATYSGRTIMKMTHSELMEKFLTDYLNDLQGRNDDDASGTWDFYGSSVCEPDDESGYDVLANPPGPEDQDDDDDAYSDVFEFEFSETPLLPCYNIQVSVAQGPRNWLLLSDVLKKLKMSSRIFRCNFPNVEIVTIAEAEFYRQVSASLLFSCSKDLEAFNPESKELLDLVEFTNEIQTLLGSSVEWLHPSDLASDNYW

Sequence of UniProt Q9HC52 (Q9HC52 whole entry A335V): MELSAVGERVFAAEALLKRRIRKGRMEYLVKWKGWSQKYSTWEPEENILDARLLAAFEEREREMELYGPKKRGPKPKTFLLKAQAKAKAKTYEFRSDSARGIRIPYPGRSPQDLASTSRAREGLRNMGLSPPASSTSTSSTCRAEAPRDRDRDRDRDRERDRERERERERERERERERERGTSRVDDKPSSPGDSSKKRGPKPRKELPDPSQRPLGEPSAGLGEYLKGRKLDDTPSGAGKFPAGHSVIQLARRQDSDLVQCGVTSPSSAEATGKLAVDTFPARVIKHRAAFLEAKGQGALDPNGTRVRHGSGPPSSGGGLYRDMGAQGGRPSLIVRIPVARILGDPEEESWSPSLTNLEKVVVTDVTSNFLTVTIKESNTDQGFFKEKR

- Kd (CBX8 (Homo sapiens)): 0.012 µM
- Ki [1]: 0.16 µM
- Kd [2]: 0.019 µM
- Kd (BCOR (Homo sapiens)): > 3 µM
Substance: MLLT3 (AF9) AHD (from UniProt P42568)
